Test results published in the supplement of paper PMC5998384.

How the values were obtained:
HeLa Kyoto [1] = assay: solubility in G1/S (NP-40 vs SDS abundance) (log2 ratio); higher = more soluble; conditions: cell cycle stage: G1/S
HeLa Kyoto [2] = assay: solubility change mitosis vs G1/S (difference of NP-40 vs SDS log2 ratios) (log2 ratio difference); higher = more soluble in mitosis
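Wherever solubility change mitosis vs G1/S (difference of NP-40 vs SDS log2 ratios) is given: synchronized HeLa Kyoto cells (double thymidine block for G1/S, nocodazole release for mitosis), protein amounts in NP-40 versus SDS lysates quantified by mass spectrometry, three biological replicates.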
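Wherever solubility in G1/S (NP-40 vs SDS abundance) is given: HeLa Kyoto cells arrested at G1/S by double thymidine block, proteins quantified by TMT10plex mass spectrometry in mild NP-40 versus SDS extracts, three biological replicates.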

Sequence	solubility in G1/S (log2) (HeLa Kyoto [1])	solubility change mitosis (log2) (HeLa Kyoto [2])
MAAFGRQVLDWHRLIPLTWACMARQTPHLGEQRRTTASLLRKLTTASNGGVIEELSCVRSNNYVQEPECRRNLVQCLLEKQGTPVVQGSLELERVMSSLLDMGFSNAHINELLSVRRGASLQQLLDIISEFILLGLNPEPVCVVLKKSPQLLKLPIMQMRKRSSYLQKLGLGEGKLKRVLYCCPEIFTMRQQDINDTVRLLKEKCLFTVQQVTKILHSCPSVLREDLGQLEYKFQYAYFRMGIKHPDIVKSEYLQYSLTKIKQRHIYLERLGRYQTPDKKGQTQIPNPLLKDILRVSEAEFLARTACTSVEEFQVFKKLLAREEEESESSTSDDKRASLDEDEDDDDEEDNDEDDNDEDDDDEDDDEAEDNDEDEDDDEEE [MTERF4]	0.434	-0.0189
MAAIAASEVLVDSAEEGSLAAAAELAAQKREQRLRKFRELHLMRNEARKLNHQEVVEEDKRLKLPANWEAKKARLEWELKEEEKKKECAARGEDYEKVKLLEISAEDAERWERKKKRKNPDLGFSDYAAAQLRQYHRLTKQIKPDMETYERLREKHGEEFFPTSNSLLHGTHVPSTEEIDRMVIDLEKQIEKRDKYSRRRPYNDDADIDYINERNAKFNKKAERFYGKYTAEIKQNLERGTAV [SYF2]	0.12	0.188
MAALKEDRSYGLSCGRVSDGSKVSVFHVKLTDSALRAFESYRARQDSVSLRPSIRFQGSQGHISIPQPDCPAEARTFSFYLSNIGRDNPQGSFDCIQQYVSSHGEVHLDCLGSIQDKITVCATDDSYQKARQSMAQAEEETRSRSAIVIKAGGRYLGKKVQFRKPAPGATDAVPSRKRATPINLASAIRKSGASAVSGGSGVSQRPFRDRVLHLLALRPYRKAELLLRLQKDGLTQADKDALDGLLQQVANMSAKDGTCTLQDCMYKDVQKDWPGYSEGDQQLLKRVLVRKLCQPQSTGSLLGDPAASSPPGERGRSASPPQKRLQPPDFIDPLANKKPRISHFTQRAQPAVNGKLGVPNGREALLPTPGPPASTDTLSSSTHLPPRLEPPRAHDPLADVSNDLGHSGRDCEHGEAAAPAPTVRLGLPLLTDCAQPSRPHGSPSRSKPKKKSKKHKDKERAAEDKPRAQLPDCAPATHATPGAPADTPGLNGTCSVSSVPTSTSETPDYLLKYAAISSSEQRQSYKNDFNAEYSEYRDLHARIERITRRFTQLDAQLRQLSQGSEEYETTRGQILQEYRKIKKTNTNYSQEKHRCEYLHSKLAHIKRLIAEYDQRQLQAWP	-0.0524	0.218
MAALTPRKRKQDSLKCDSLLHFTENLFPSPNKKHCFYQNSDKNEENLHCSQQEHFVLSALKTTEINRLPSANQGSPFKSALSTVSFYNQNKWYLNPLERKLIKESRSTCLKTNDEDKSFPIVTEKMQGKPVCSKKNNKKPQKSLTAKYQPKYRHIKPVSRNSRNSKQNRVIYKPIVEKENNCHSAENNSNAPRVLSQKIKPQVTLQGGAAFFVRKKSSLRKSSLENEPSLGRTQKSKSEVIEDSDVETVSEKKTFATRQVPKCLVLEEKLKIGLLSASSKNKEKLIKDSSDDRVSSKEHKVDKNEAFSSEDSLGENKTISPKSTVYPIFSASSVNSKRSLGEEQFSVGSVNFMKQTNIQKNTNTRDTSKKTKDQLIIDAGQKHFGATVCKSCGMIYTASNPEDEMQHVQHHHRFLEGIKYVGWKKERVVAEFWDGKIVLVLPHDPSFAIKKVEDVQELVDNELGFQQVVPKCPNKIKTFLFISDEKRVVGCLIAEPIKQAFRVLSEPIGPESPSSTECPRAWQCSDVPEPAVCGISRIWVFRLKRRKRIARRLVDTLRNCFMFGCFLSTDEIAFSDPTPDGKLFATKYCNTPNFLVYNFNS [ESCO2]	-0.994	0.997
MAAPSLLNWRRVSSFTGPVPRARHGHRAVAIRELMIIFGGGNEGIADELHVYNTATNQWFLPAVRGDIPPGCAAHGFVCDGTRILVFGGMVEYGRYSNELYELQASRWLWKKVKPHPPPSGLPPCPRLGHSFSLYGNKCYLFGGLANESEDSNNNVPRYLNDFYELELQHGSGVVGWSIPVTKGVVPSPRESHTAVIYCKKDSGSPKMYVFGGMCGARLDDLWQLDLETMSWSKPETKGTVPLPRSLHTASVIGNKMYIFGGWVPHKGENTETSPHDCEWRCTSSFSYLNLDTTEWTTLVSDSQEDKKNSRPRPRAGHCAVAIGTRLYFWSGRDGYKKALNSQVCCKDLWYLDTEKPPAPSQVQLIKATTNSFHVKWDEVSTVEGYLLQLSTDLPYQAASSDSSAAPNMQGVRMDPHRQGSNNIVPNSINDTINSTKTEQPATKETSMKNKPDFKALTDSNAILYPSLASNASNHNSHVVDMLRKNEGPHTSANVGVLSSCLDVRTVIPETSVSSTVSSTQTMVTQQTIKTESSSTNGAVVKDETSLTTFSTKSEVDETYALPATKISRVETHATATPFSKETPSNPVATVKAGERQWCDVGIFKNNTALVSQFYLLPKGKQSISKVGNADVPDYSLLKKQDLVPGTGYRFRVAAINGCGIGPFSKISEFKTCIPGFPGAPSAVRISKNVEGIHLSWEPPTSPSGNILEYSAYLAIRTAQIQDNPSQLVFMRIYCGLKTSCIVTAGQLANAHIDYTSRPAIVFRISAKNEKGYGPATQVRWLQGNNKKAPLN [HCFC2]	-0.228	-0.0821
MAATLILEPAGRCCWDEPVRIAVRGLAPEQPVTLRASLRDEKGALFQAHARYRADTLGELDLERAPALGGSFAGLEPMGLLWALEPEKPLVRLVKRDVRTPLAVELEVLDGHDPDPGRLLCRVRHERYFLPPGVRREPVRAGRVRGTLFLPPEPGPFPGIVDMFGTGGGLLEYRASLLAGKGFAVMALAYYNYEDLPKTMETLHLEYFEEAVNYLLSHPEVKGPGVGLLGISKGGELCLSMASFLKGITAAVVINGSVANVGGTLRYKGETLPPVGVNRNRIKVTKDGYADIVDVLNSPLEGPDQKSFIPVERAESTFLFLVGQDDHNWKSEFYANEACKRLQAHGRRKPQIICYPETGHYIEPPYFPLCRASLHALVGSPIIWGGEPRAHAMAQVDAWKQLQTFFHKHLGGHEGTIPSKV [ACOT1]	0.138	-0.000552
MAAVEAAAEPVTVVAAVGPKAKDEEEEEEEPLPPCEAVRWAPVGAVAEARPGATAFLEEATAEEPGAAPGSPPDSPGRTLRRLRAERRRLDSALLALSSHFAQVQFRLRQVVRGAPAEQQRLLRELEDFAFRGCPHVLGYEGPGDPASDEGDGLPGDRPWLRGEDQSEQEKQERLETQREKQKELILQLKTQLDDLETFAYQEGSYDSLPQSVVLERQRVIIDELIKKLDMNLNEDISSLSTEELRQRVDAAVAQIVNPARVKEQLVEQLKTQIRDLEMFINFIQDEVGSPLQTGGGHCECKAGGKTGNGCSRTGSSRTPPGNSKTKAEDVKKVRETGLHLMRRALAVLQIFAVSQFGCATGQIPPTLWQRVQADRDYSPLLKRLEVSVDRVKQLALRQQPHDHVITSANLQDLSLGGKDELTMAVRKELTVAVRDLLAHGLYASSPGMSLVMAPIACLLPAFSSAPEAMHPWELFVKYYHAKNGRAYVESPARKLSQSFALPVTGGTVVTPKQSLLTAIHMVLTEHDPFKRSADSELKALVCMALNEQRLVSWVNLICKSGSLIEPHYQPWSYMAHTGFESALNLLSRLSSLKFSLPVDLAVRQLKNIKDAF [RUNDC1]	-0.124	-0.215
MADAAATAGAGGSGTRSGSKQSTNPADNYHLARRRTLQVVVSSLLTEAGFESAEKASVETLTEMLQSYISEIGRSAKSYCEHTARTQPTLSDIVVTLVEMGFNVDTLPAYAKRSQRMVITAPPVTNQPVTPKALTAGQNRPHPPHIPSHFPEFPDPHTYIKTPTYREPVSDYQVLREKAASQRRDVERALTRFMAKTGETQSLFKDDVSTFPLIAARPFTIPYLTALLPSELEMQQMEETDSSEQDEQTDTENLALHISMEDSGAEKENTSVLQQNPSLSGSRNGEENIIDNPYLRPVKKPKIRRKKSLS [TAF8]	0.116	0.0206
MADSAELKQMVMSLRVSELQVLLGYAGRNKHGRKHELLTKALHLLKAGCSPAVQMKIKELYRRRFPQKIMTPADLSIPNVHSSPMPATLSPSTIPQLTYDGHPASSPLLPVSLLGPKHELELPHLTSALHPVHPDIKLQKLPFYDLLDELIKPTSLASDNSQRFRETCFAFALTPQQVQQISSSMDISGTKCDFTVQVQLRFCLSETSCPQEDHFPPNLCVKVNTKPCSLPGYLPPTKNGVEPKRPSRPINITSLVRLSTTVPNTIVVSWTAEIGRNYSMAVYLVKQLSSTVLLQRLRAKGIRNPDHSRALIKEKLTADPDSEIATTSLRVSLLCPLGKMRLTIPCRALTCSHLQCFDATLYIQMNEKKPTWVCPVCDKKAPYEHLIIDGLFMEILKYCTDCDEIQFKEDGTWAPMRSKKEVQEVSASYNGVDGCLSSTLEHQVASHHQSSNKNKKVEVIDLTIDSSSDEEEEEPSAKRTCPSLSPTSPLNNKGILSLPHQASPVSRTPSLPAVDTSYINTSLIQDYRHPFHMTPMPYDLQGLDFFPFLSGDNQHYNTSLLAAAAAAVSDDQDLLHSSRFFPYTSSQMFLDQLSAGGSTSLPTTNGSSSGSNSSLVSSNSLRESHSHTVTNRSSTDTASIFGIIPDIISLD [PIAS1]	-0.461	0.113
MADSERLSAPGCWAACTNFSRTRKGILLFAEIILCLVILICFSASTPGYSSLSVIEMILAAIFFVVYMCDLHTKIPFINWPWSDFFRTLIAAILYLITSIVVLVERGNHSKIVAGVLGLIATCLFGYDAYVTFPVRQPRHTAAPTDPADGPV [PLP2]	-0.0955	-0.163
MADSSGRGAGKPATGPTNSSSAKKKDKRVQGGRVIESRYLQYEKKTTQKAPAGDGSQTRGKMSEGGRKSSLLQKSKADSSGVGKGDLQSTLLEGHGTAPPDLDLSAINDKSIVKKTPQLAKTISKKPESTSFSAPRKKSPDLSEAMEMMESQTLLLTLLSVKMENNLAEFERRAEKNLLIMCKEKEKLQKKAHELKRRLLLSQRKRELADVLDAQIEMLSPFEAVATRFKEQYRTFATALDTTRHELPVRSIHLEGDGQQLLDALQHELVTTQRLLGELDVGDSEENVQVLDLLSELKDVTAKKDLELRRSFAQVLELSAEASKEAALANQEVWEETQGMAPPSRWYFNQDSACRESGGAPKNTPLSEDDNPGASSAPAQATFISPSEDFSSSSQAEVPPSLSRSGRDLS [HAUS8]	0.514	0.189
MADVEDGEETCALASHSGSSGSKSGGDKMFSLKKWNAVAMWSWDVECDTCAICRVQVMDACLRCQAENKQEDCVVVWGECNHSFHNCCMSLWVKQNNRCPLCQQDWVVQRIGK [RNF7]	-0.165	-0.169
MADWARAQSPGAVEEILDRENKRMADSLASKVTRLKSLALDIDRDAEDQNRYLDGMDSDFTSMTSLLTGSVKRFSTMARSGQDNRKLLCGMAVGLIVAFFILSYFLSRART [BET1L]	-0.104	0.0489
